What was measured:
[1] = biological target: MslH (lasso peptide epimerase), N-terminally His6-tagged, wild type (Streptomyces griseorubiginosus); experiment: crystal structure; MslH:apo, His6-MslH 5 mg/ml, sitting-drop vapor diffusion, 20 °C; space group I422, one monomer in the asymmetric unit; 2.30 Å
[2] = biological target: MslH (lasso peptide epimerase), N-terminally His6-tagged, wild type (Streptomyces griseorubiginosus); experiment: crystal structure; co-crystallisation: purified His6-MslA analogue-MslB1 complex mixed with His6-MslH (5 mg/ml) at 1.2:1 mole ratio 16 h before the precipitant; sitting drops, 20 °C; one monomer in the asymmetric unit
[3] = biological target: MslH (lasso peptide epimerase), N-terminally His6-tagged, wild type (Streptomyces griseorubiginosus); experiment: SEC; gel-filtration of purified recombinant His6-MslH; apparent molecular weight against the 49.4 kDa calculated for the monomer

Measured: stoichiometry N

MslH (lasso peptide epimerase), N-terminally His6-tagged, wild type (enzyme)
8: all assays above

From article PMC10406935
